Patent US5578451A, “Methods and systems for screening potential alzheimer's disease therapeutics” (The General Hospital Corporation, priority 1995, dated 1996)
Where “and” joins values, the source holds several entries; their conditions need not be identical. Identical values can stand only once. Like-named read-outs stand apart in the source and are kept apart here.

Experiments:
[1] = system: Go reconstituted in phospholipid vesicles; assay: GTPγS binding to Go reconstituted in phospholipid vesicles; format: biochemical, bovine; settings: FIG. 1(e)
Procedure: (§1) Biophys. Acta 161:1280-1285, 1989.
GTPγS binding to peptides was negligible.
Reconstitution of Go into phospholipid vesicles was accomplished with 1 mg/ml of phosphatidylcholine, using the gel filtration method (Nishimoto et al., J. Biol. Chem. 264:14029-14038, 1989). In a final incubation for GTPγS binding, 5 nM of reconstituted Go was used.
As illustrated in FIG. 1(e), Go reconstituted in phospholipid vesicles was incubated with transmembrane region-connected peptide 20 ([…], SEQ ID NO: 18; .quadrature.) or the partial sequence of the APP transmembrane domain alone (TVIVITLVML, SEQ ID NO: 7; .quadrature.). Transmembrane region-connected peptide 20 (SEQ ID NO: 18) was also incubated with Go in the absence of phospholipids and the presence of 0.07% CHAPS (.diamond-solid.). The transmembrane region-connected peptide 20 (SEQ ID NO: 18) stimulated Go reconstituted in phospholipid vesicles with a potency 10 times greater than that of peptide 20 (SEQ ID NO: 1). […]
Preactivation of pertussis toxin (Funakoshi, Japan) was carried out by treating the toxin with 100 μM ATP and 1 mM DTT for 10 min at 30° C. […] Increasing concentrations of peptide 20 (SEQ ID NO: 1) were incubated for 2 min with Go reconstituted in phospholipid vesicles which had been treated with pertussis toxin in the presence (.diamond-solid.) or absence (.quadrature.) of NAD, and GTPγS binding to Go was measured.

[2] = molecular target: T1, Go (Bos taurus, UniProt P08239)
Procedure: Trimeric Go was purified to homogeneity from bovine brain as described (Katada et al., FEBS Lett. 213:353-358, 1987). This Go preparation was stored in 20 mM Hepes/NaOH (pH 7.4), 1 mM EDTA, and 0.7% CHAPS, and diluted ≥10 fold for assays.
GTPγS binding to Go was assayed in a buffer containing 50 mM Hepes/NaOH (pH 7.4), 100 μM EDTA, 120 μM MgCl2, and 60 nM [^35 S]GTPγS (DuPont-New England Nuclear) at 37° C., and the fraction of total Go bound to GTPγS was measured as described (Okamoto et al., Cell 62:709-717, 1990). […] The total amount of Go in a given preparation was defined as the saturation amount of GTPγS bound to Go following a 30-min incubation of Go with 10 mM Mg^2+ and ≥60 nM GTPγS at 30° C.
In the experiment shown in FIG. 1(b), 10 nM Go was incubated with water or 100 μM of each peptide for 2 min, and the amount of GTPγS bound to Go at the end of this period was measured. In the experiment shown in FIG. 1(c), 10nM Go was incubated with water (O) or 100 μM peptide 20 (SEQ ID NO: 1) (.oval-solid.), and GTPγS binding was measured at the indicated times. […] GTPγS binding to Go in the presence or absence of peptide 20 (SEQ ID NO: 1) obeyed first-order kinetics according to the equation
(B is the binding at time t; BT is the total binding observable at infinite time; and kapp is the rate constant for GTPγS binding).
In this experiment, 10 nM Go was incubated with various concentrations of [sequence] (peptide 20, SEQ ID NO: 1; .quadrature.), [sequence] (H-deleted, SEQ ID NO: 14; .diamond.), [sequence] (HH-deleted, SEQ ID NO: 15; .quadrature.), [sequence] (RHLSK-deleted, SEQ ID NO: 16; .diamond-solid.), or [sequence] (KQYTSI-added, SEQ ID NO: 17; .box-solid.), and GTPγS binding to Go at 2 min. was measured.

[3] = molecular target: Trimeric Go purified from bovine brain (bovine) (UniProt P08239); assay: 22C11-precipitate of Sf9 membranes incubated with 1 µg purified Go, immunoblot
[4] = system: Gi1; assay: Effect of peptide on G proteins other than Go: Gi1; format: biochemical; settings: data not shown
Excerpt: as §1

[5] = system: Gi2; assay: Effect of peptide on G proteins other than Go: Gi2; format: biochemical; settings: data not shown
Excerpt: as §1

[6] = system: Gi3; assay: Effect of peptide on G proteins other than Go: Gi3; format: biochemical; settings: data not shown
Excerpt: as §1

[7] = system: GS; assay: Effect of peptide on G proteins other than Go: GS; format: biochemical; settings: data not shown
Excerpt: as §1

[8] = molecular target: c-Ki-ras p21; assay: Effect of peptide on low molecular weight G protein c-Ki-ras p21; format: biochemical; settings: data not shown
Excerpt: as §1

[9] = system: smg p25A; assay: Effect of peptide on low molecular weight G protein smg p25A; format: biochemical; settings: data not shown
Excerpt: as §1

[10] = molecular target: T2, APP-Go complex (Bos taurus, UniProt P08239); assay: 22C11 (anti-APP) immunoprecipitation of APP and co-precipitation of Go from solubilized brain membranes; format: binding, bovine; settings: 10 μM peptide, FIG. 2d
T2 construct: APP immunoprecipitated with 22C11, co-precipitated Go alpha detected by GC/2
Procedure: As a control, 2 μg/ml of rabbit IgG was used. After overnight shaking at 4° C., the immunoprecipitated sample was centrifuged at 5000 rpm for 5 min. The pellet was washed three times with ice-cold buffer C and the final pellet was applied to SDS-PAGE. Electroblotting onto a PVDF sheet was performed as described (Okamoto et al., J. Biol. Chem. 266:1085-1091, 1991). After blocking with PBS containing 2% skim milk and 1% BSA, the sheet was incubated with the first antibody [1 μg/ml of 22C11; 1/1000 dilution of anti-Go α monoclonal antibody GC/2 (DuPont-New England Nuclear); 1/1000 dilution of 1C1, a monoclonal antibody against the C-terminal peptide 677-695 of APP695 ] for 4 h, and then exposed to horseradish peroxidase-conjugated goat IgG reactive for mouse or rabbit immunoglobulins for 2-4 h at room temperature. The antigenic bands were detected with an ECL detection kit (Amersham). YL1/2 (SERA Lab), an anti-tubulin antibody, was used at 1:500 dilution for immunodetection.
In this experiment, solubilized brain membranes were incubated with 22C11-coated beads in the presence of 10 μM peptide 20 (SEQ ID NO: 1; 2nd and 5th lanes) or 10 μM of the control peptide, peptide677-695 of APP (SEQ ID NO: 13; 3rd and 6th lanes), or in the absence of both of these peptides (1st and 4th lanes). In this experiment, an anti-mouse IgG antibody different from that used in (a) was employed.

[11] = molecular target: T1, Go; assay: Storage stability of the Go-activating ability of the peptide; format: physicochemical, bovine; settings: storage at either -4° C. or -20° C.
[12] = molecular target: Trimeric Go purified from bovine brain (bovine) (UniProt P08239)
[13] = 10 nM Go, various peptide concentrations, 2 min, FIG. 1(d)

T2 sequence (P08239 whole entry): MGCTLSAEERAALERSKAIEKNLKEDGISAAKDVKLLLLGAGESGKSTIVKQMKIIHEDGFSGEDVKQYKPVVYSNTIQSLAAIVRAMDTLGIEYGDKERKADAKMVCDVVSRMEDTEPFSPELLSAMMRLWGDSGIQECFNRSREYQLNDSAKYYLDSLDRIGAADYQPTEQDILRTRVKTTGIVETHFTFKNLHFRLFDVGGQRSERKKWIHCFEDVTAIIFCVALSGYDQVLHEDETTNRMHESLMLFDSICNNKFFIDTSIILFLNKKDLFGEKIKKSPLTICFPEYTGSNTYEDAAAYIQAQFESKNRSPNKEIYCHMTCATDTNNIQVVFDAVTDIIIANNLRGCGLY
T2 sequence (Q28053 whole entry partner): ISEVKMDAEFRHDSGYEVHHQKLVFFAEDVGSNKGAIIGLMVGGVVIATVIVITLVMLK
T2 sequence (P62871 whole entry partner): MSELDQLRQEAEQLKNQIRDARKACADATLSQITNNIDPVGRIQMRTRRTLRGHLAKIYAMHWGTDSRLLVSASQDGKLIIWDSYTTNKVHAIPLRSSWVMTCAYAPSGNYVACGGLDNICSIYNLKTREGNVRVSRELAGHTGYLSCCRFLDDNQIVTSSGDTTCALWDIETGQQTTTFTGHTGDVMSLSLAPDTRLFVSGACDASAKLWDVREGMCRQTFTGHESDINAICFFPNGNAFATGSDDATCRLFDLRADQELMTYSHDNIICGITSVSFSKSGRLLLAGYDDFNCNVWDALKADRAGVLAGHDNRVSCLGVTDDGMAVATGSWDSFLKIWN
T2 sequence (P63212 1-68 partner): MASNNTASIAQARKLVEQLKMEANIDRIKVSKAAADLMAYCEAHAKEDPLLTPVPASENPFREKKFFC
T1 sequence (P08239 whole entry): as the sequence (P08239 whole entry) above
T1 sequence (P62871 whole entry partner): as the sequence (P62871 whole entry partner) above
T1 sequence (P63212 1-68 partner): as the sequence (P63212 1-68 partner) above

Molecule: TVIVITLVML [APP(639-648), a portion of the transmembrane region of APP]
- effect on Go (GTPγS binding) [1]: without effect on Go

Molecule: HHGVVEVDAAVTPEE [RHLSK-deleted]
- potency relative to peptide 20 in stimulating Go [2, 13]: several times less potent than peptide 20

Molecule: recombinant full-length APP695 expressed in Sf9 cells (receptor)
- amount of reconstituted Go precipitated [3]: 0.05 µg/tube and 0.1 µg/tube

Molecule: HHGVVEVDAAVTPEERHLSK [peptide 20]
- stimulation of Gi1 [4]: not stimulated
- stimulation of Gi2 [5]: not stimulated
- stimulation of Gi3 [6]: not stimulated
- stimulation of GS [7]: not stimulated
- stimulation of c-Ki-ras p21 [8]: not stimulated
- stimulation of smg p25A [9]: not stimulated
- 22C11-mediated co-precipitation of Go [10]: prevents the 22C11-mediated co-precipitation of Go
- precipitation of APP by 22C11 [10]: did not affect the precipitation of APP by 22C11
- ability to activate Go during storage [11]: gradually decreased during storage
- rate constant of GTPγS binding to Go ([2]; 10 nM Go, increasing peptide concentrations, FIG. 1(d)): stimulated the rate constant of GTPγS binding to Go in a dose-dependent manner
- stimulation of GTPγS binding to Go ([2]; low (≤100 nM) or high (≥10 mM) Mg2+ concentrations): could not be observed
- stimulation of GTPγS binding to Go ([2]; purified trimeric go): 2-3 fold

Molecule: GVVEVDAAVTPEERHLSK [HH-deleted]
- Go-activator function of peptide 20 variants (GTPγS binding to Go at 2 min) [2, 13]: nullified Go -activator function

Molecule: HGVVEVDAAVTPEERHLSK [H-deleted]
- Go-activator function of peptide 20 variants (GTPγS binding to Go at 2 min) [2, 13]: nullified Go -activator function

Molecule: MQQNGYENPTYKFFEQMQN [APP(677-695), peptide corresponding to C-terminal residues 677-695 of APP695, used as control peptide]
- 22C11-mediated co-precipitation of Go [10]: no discernable effect

Molecule: TVIVITLVMLHHGVVEVDAAVTPEERHLSK
- potency in stimulating Go relative to peptide 20 [1]: 10 times
- effect on Go compared with peptide 20 ([2]; absence of phospholipids, presence of 0.07% CHAPS, FIG. 1(e)): no more potent than peptide 20

B1: transmembrane region-connected peptide 20 (peptide)
peptide: TVIVITLVMLHHGVVEVDAAVTPEERHLSK
- GTPγS binding to Go reconstituted in phospholipid vesicles (times greater potency than peptide 20) [12]: 10
